Experimental data published in paper PMC7364481, “Identification and validation of the phosphorylation sites on Aristaless-related homeobox protein”.

Assays:
Test in all cases: EMSA; 5 ug protein per lane; LightShift chemiluminescent EMSA kit, 6% polyacrylamide gel, 5 ug protein per lane; binding buffer, salt, pH and temperature not stated (protein eluted in 50 mM Tris-Cl pH 8.0, 30 mM glutathione)
Details in all cases: protein: recombinant; tags: N-terminal GST (pGEX-4T-2); label: biotin; blunt
GST-ARX(220-392) WT = GST-ARX(220-392) WT (UniProt O35085 220-392)
Chain of GST-ARX(220-392) WT (O35085 220-392): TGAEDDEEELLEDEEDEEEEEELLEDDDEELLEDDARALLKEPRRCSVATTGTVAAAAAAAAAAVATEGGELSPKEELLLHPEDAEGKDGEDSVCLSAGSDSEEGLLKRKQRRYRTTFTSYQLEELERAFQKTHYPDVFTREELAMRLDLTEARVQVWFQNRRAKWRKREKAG

GST-ARX(220-392) S266A = GST-ARX(220-392) S266A (UniProt O35085 220-392, S266A)
Chain of GST-ARX(220-392) S266A (O35085 220-392 S266A): as the sequence (O35085 220-392) above, with S47A counted along it

GST-ARX(220-392) S266E = GST-ARX(220-392) S266E (UniProt O35085 220-392, S266E)
Chain of GST-ARX(220-392) S266E (O35085 220-392 S266E): as the sequence (O35085 220-392) above, with S47E counted along it

Measured: binding result

B1: SIX1 probe (dsDNA)
DNA 1: TCTTAACATTAAGGTAATTAAATATGAGCTCAC
DNA 2: GTGAGCTCATATTTAATTACCTTAATGTTAAGA
binds: all assays above
